Values quoted from earlier work, collected in patent US8791066B2 (Novo Nordisk A/S, priority 2004, dated 2014).

Substance: GLP-1(7-36)amide
- time until peak concentrations return to baseline / cleared from the circulation (administered subcutaneously): ≤ 90 min
- time to complete clearance (in vivo): 12 to 13 min
